We go through 32 sequences from a protein production outcome set (Wang et al. 2014).

The series is described as follows: label from the status in PepcDB records.

Turning to “TIFKDIYQLWFTQYKQTVKESTWVTTQRLFRLHILPIFSDYRIAKISIKDCQKAINQWFNAGLAKYHTLMNYVAKVLDYAINIDLISENPAKRVIVPVNKNDRS”, the protein production entry is given as “failed”. As for “TISQRPYRDRVIHLLALKAYKKPELLARLQKDGVNQKDKNSLGAILQQVANLNSKDLSYTLKDYVFKELQRDWPGYSEIDRRSLESVLSRKLN”, the entry is “not failed”. For “TLDAPLQRRMEDLLMGWRARLPERTSAAILVVEAENMAVRAYVGSVDISDVKRFGHVDMVTALRSPGSTLKPFLYGMAMDAGLIHSESLMQDVPRRYGDYRPGNFSTGFGGPVAASSALSMSLNLPAVQLLEVYGPKRFAAELRNGGVPLTLPPLAEPNLALILGGAGSRLEDLVAGYSAFARGGRSADVRLQPQDRLRERRMMSPGAAWIIRRILSGQSRPDIDPRAELVQRPQLAWKTGTSYGFRDAWAIGVGPRFLVGVWIGRPDGTPVPGQFGLASAAPLMLQVHDVLVNRDSQRGI” the value was “failed”; for “TLDLPMQMAAERALADVPQQAAIVALRPSTGEVLAVAQNAPADALGPIALTGLYPPGSTFKTVTTSAALQAGAATPDTVLPCPGTENIEGRQIPNDDEFDLGAVPLHTAFARSCNTTMGRLAVGLPPDALQQAALQFGLGVDYVTPGLTTVTGNVPVADSPAARVESGIGQGQVTATPFGMAMVAASIANGSTPSPMIVQGQPGTADKTAPTVPANVTSDLRTMMRETVTGGTATALQDIPGLLGKTGTAESGNGPAHGWFVGIKDDLAFAVFIATGDSSAPAVQAAGRFLR”, “failed”. For “TLTVNGPPIISSTQTQHALHGEKGQIKCFIRSTPPPDRIAWSWKENVLESGTSGRYTVETISTEEGVISTLTISNIVRADFQTIYNCTAWNSFGSDTEIIRLKEQGSEM” the value was “not failed”; for “TNHKGEKINVAVKTCKKDCTLDNKEKFMSEAVIMKNLDHPHIVKLIGIIEEEPTWIIMELYPYGELGHYLERNKNSLKVLTLVLYSLQICKAMAYLESINCVHRDIAVRNILVASPECVKLGDFGLSRYIEDEDYYKASVTRLPIKWMSPESINFRRFTTASDVWMFAVCMWEILSFGKQPFFWLENKDVIGVLEKGDRLPKPDLCPPVLYTLMTRCWDYDPSDRPRFTELVCSLSDVYQMEKDIAMEQERNARYRTPKILEPTAFQE”, “failed”. For “TPAVVERADADSQYEILVGGQRAGLTAYRDLGAQRVFFHTEIDEAFAGQGLASQLVQQALVDVRASGMRIVPVCPYVAKFLKRHDEFADITDPVTPEVLRWLEAQL”, the protein production result was “failed”.

On to “TPTEGLTIGDKAPTFTICGEKQLIDLKDLRGKYVLLSFWASYDALSRMQNATLNHAVAQADNVEMVSVSFDEYKSIFNETIKKDQISTSNCFVELAGVSSDLYQTYRLKRGFKNFLLDENGVIVAKDVTVSELSS”, for which the protein production result was “failed”.

For “TPVVFLGAGNLATNLAKALYRKGFRIMQVYSRTEESARTLANEVEAEYITDLKDVSNEARLYIISLKDAAFVELLPQITDGKQHALLVHTAGSIPMNIWEGHAERYGVFYPMQTFSKQREVDFREVPFFIEAKRPEDTELLKAVAGTLSDKVYEAD”, the protein production result is listed as “failed”. For “TRGSAQMQPYFEELLLSLGPILKNITNSMVISGHTDSTPYAGSLFTNWELSSERALLARRVLERGGVKRDQVIQVTGMADQVPYITSDTAAAANRRIEALILTS” the value was “failed”; for “TRNTLDIRTVAHREADGSYRIKGEKFYSTGALFAHWVSIKALDDNGKTVMAFIERGTQGLRIVDDWSGFGQRTTASGTVLLDDVSVPAKQVVP”, “failed”.

Turning to “TSIRQGASNVICAYRRDEENMPGSRREVKNAKEEGVKFMFNLQPLGIEVDAYGKVSGVKVVKTALGEPDDAGRRRPEPVEGSEHVLPADAVIMAFGFQPHQMDWLTPFNVELDQWGRIKAPNNQEFQYQTSNEKIFAGGDAVRGSDLVVTAIDEGRKAAEGILDYLDV”, the protein production entry was “failed”.

For “TSITPSSQDICRICHCEGDDESPLITPCHCTGSLHFVHQACLQQWIKSSDTRCCELCKYEFIMETKL”, the protein production result was “not failed”. As for “TSSISPAKMANGTAGTKVALRKTKQAAEKISADKISKEALLECADLLSSALTEPVPNSQLVDTGHQLLDYCSGYVDCIPQTRNKFAFREA”, the entry is “failed”.

As for “TSTDAAGGDSYRVGINQLVQHPALDAATTGFKEAFEEAGVDVTFDEQNANGEQGTALTISQQFASDNLDLVLAVATPAAQATAQNITDIPVLFTAVTDAVSAELVDSNEAPGGNVTGTSDIAPIEQQLELLQQLVPDAKSIGIVYASGEVNSQVQVDEVTKAAEPLGLSVNTQTVTTVNEIQQAVEALGDVDVIYVPTDNMVVSGISSLVQVAEQKQIPVIGAESGTVEGGALATLGIDYTELGRQTGEMALRILQDGEDPATMPVETATEFTYVINEDAAERQGVEIPQEILDKAERV”, the protein production result is recorded as “failed”. As for “TTAKPQQIQALMDEVTKQGNIVRELKAQKADKNEVAAEVAKLLDLKKQLAVAEGKPPEAPKGKKKK”, the entry is “not failed”.

With “TTKKRVFHFGKGKSEGNKTMKELLGGKGANLAEMASIGLSVPPGFTVSTEACQQYQDAGCALPAGLWAEIVDGLQWVEEYMGATLGDPQRPLLLSVRSGAAVSMPGMMDTVLNLGLNDEVAAGLAAKSGERFAYDSFRRFLDMFGNVVMDIPRSLFEEKLEHMKESKGLKNDTDLTASDLKELVGQYKEVYLSAKGEPFPSDPKKQLELAVLAVFNSWESPRAKKYRSINQITGLRGTAVNVQCMVFGNMGNTSGTGVLFTRNPNTGEKKLYGEFLVNAQGEDVVAGIRTPEDLDAMKNLMPQAYDELVENCNILESHYKEMQDIEFTVQENRLWMLQCRTGKRTGKSAVKIAVDMVNEGLVEPRSAIKMVEPGHLDQLLHPQFENPSAYKDQVIATGLPASPGAAVGQVVFTAEDAEAWHSQGKAAILVRAETSPEDVGGMHAAVGILTERGGMTSHAAVVARGWGKCCVSGCSGIRVNDAEKLVTIGGHVLREGEWLSLNGSTGEVILGKQPLSPPALSGDLGTFMAWVDDVRKLKVLANADTPDDALTARNNGAQGIGLCRTEHMFFASDERIKAVRQMIMAPTLELRQQALDRLLPYQRSDFEGIFRAMDGLPVTIRLLDPPLHEFLPEGNIEDIVSELCAETGANQEDALARIEKLSEVNPMLGFRGCRLGISYPELTEMQARAIFEAAIAMTNQGVQVFPEIMVPLVGTPQELGHQVTLIRQVAEKVFANVGKTIGYKVGTMIEIPRAALVADEIAEQAEFFSFGTNDLTQMTFGYSRDDVGKFIPVYLAQGILQHDPFEVLDQRGVGELVKFATERGRKARPNLKVGICGEHGGEPSSVAFFAKAGLDYVSCSPFRVPIARLAAAQVLV”, the protein production entry was “not failed”.

With “TVSQLRSRITRFALAGRGMRETVTWSFISEKQALAFGGGQAQLKLVNPISADMSVMRPSLLPGLLVAAQRNADRGFPDFALFEVSNIYEDDTPDKQHRVAGGIRRGTEQFGGAGRFWNGNARAVDVFDAKADALAVLEACGLESGKVQIEVGAPDWYHPGRSGVIKLGSKIILGFFGVFHPATLEKLDISGPLCGFEIFLDRIP”, the protein production result is “failed”. For “VACKPKEKPSSATSLTDDALMDTVQRRTFNYFWDAAEPNSGLARERYHMDGEYPAGGPEIVTSGGSGFGIMAILAGIDRGYVSREEGLRRMEKIVGFLEKADRFKGAYPHWWNGETGHVQPFGQKDNGGDLVETAFLMQGLLAVHQYYAEGSAEEKKLAGRIDKLWREVDWNWYRHGGQNVLYWHWSPEYGWEMNFPVHGYNECLIMYILAAASPTHGVPAAVYHEGWAQNGAIVSPHKVEGIELHLRYQGGEAGPLFWAQYSFLGLDPVGLKDEYCPSYFNEMRNLTLVNREYCIRNPKHYKGYGPDCWGLTASYSVDGYAAHGPLERDDRGVISPTAALSSIVYTPDQSLQVMHHLYEMGDKVFGPYGFYDAFSETADWYPKRYLAIDQGPIAVMIENYRTGLLWKLFMSHPDVQNGLKKLGFNVKK” the value was “not failed”; for “VADTDGHYRVRAITEISSFNETLGATFSDKEFDTIGGLVINKFGRLPKNGESITIEGFNFTVTRADSRRLHLLKVERIEPGVVEDADSHDSV”, “not failed”; for “VAKMRFIDIGANLLDEMYTGQYNDKPYHPPDLSAVLERAWAAGLEKLMITAGSLKEARAALELAKTDERLYCTVGCHPTRCKEFEDHPGGPEAYLQELLEVLKEGQALGKVVAVGECGLVATDYERLHFCDADTQKKYFEAQFRLAKESGLPMFLHLRAAADDFLDITGRHLGDFPRGGVVHSFDGTAEEAARVLAVPQLAIGINGCSLKTDDNLAVVGGLPLERIMLETDCPWCEIRPTHAGRKHVSAEALAGVTGAKDRKKFMPGCQVKSRNEPANIRQVLEVVAGVKGRTDLEAVADVIFGNTERMFFPTA”, “not failed”. As for “VAPLGLSVPSDVELPPTAKMHAIIERTASFVCRQGAQFEIMLKAKQARNSQFDFLRFDHYLNPYYKFIQKAMKEGRYTVLAENKSDEKKKSGVS”, the entry is “not failed”; as for “VATLYNDLKNKQTSVVEPKKPLPETWKNMHPCMVLNYMRPQCTFIVSGGTGTNQNNTFSMSVCVDNCEFNAEGPSKKAARYKLSALVCNKLFGTDYPQK”, “failed”.

As for “VATPRGRLRVASPVLFSQLAMGRIGAGFYAAYPEVIIEVTAEDRLVDLVEEQFDVAIRINPDPDSRLVGRCFARDRLVVVAAPELPRPMPGAIRQTPAIVTSSFQPTHWKLDNGHLVLKPIPKLWFSS”, the protein production entry is listed as “failed”. As for “VEFSTLPAGPPAPPQDVTVQAGVTPATIRVSWRPPVLTPTGLSNGANVTGYGVYAKGQRVAEVIFPTADSTAVELVRLRSLEAKGVTVRTLSAQGESVDSAVAAVPPELLVPPTPHP”, the entry is “not failed”. Take “VEGFKVMRDGIKVASDETLLTPRFYTTDFDEMERLFSLELNKNMDMEEFEAMLNEFKLDYNQRHFVRNETFKEAAEKIQGPTRKIFIEFLERSCTAEFSGFLLYKELGRRLKATNPVVAEIFTLMSRDEARHAGFLNKAMSDFNLALDLGFLTKNRKYTFFKPKFIFYATYLSEKIGYWRYISIYRHLQRNPDNQLYPLFEYFENWCQDENRHGDFFTAVLKARPEMVNDWAAKLWSRFFCLSVYITMYLNDHQRDAFYSSLGLNTTQFNQHVIIETNKSTERIFPAVPDVENPEFFRRMDLLVKYNAQLVNIGSMNLPSPIKAIMKAPILERMVAEVFQVFIMTPKESGSYDLDANKTALVY”: the protein production entry is “not failed”. As for “VENLKAQALCSWTAKKDNHLNFSKHDIITVLEQQENWWFGEVHGGRGWFPKSYVKIIPGSE”, the entry is “not failed”.

For “VEVIRARRLLDGQASTTGYFDNIEHCIDEEFGQCSITSNDKLLLVGSGAYPMTLIQVAKETGASVIGIDIDPQAVDLGRRIVNVLAPNEDITITDQKVSELKDIKDVTHIIFSSTIPLKYSILEELYDLTNENVVVAM”, the protein production entry is “failed”. As for “VFHRFNEPGSRSGYSLYVPEYYDPDREWPLVMALHGGSGHGRLFLWSWLRDARARGAIVVAPTATGRTWALMGEDVDSPNLARILDEVRGHWRIDPSRLLLTGLSDGGTFCYVSGLTSDSPFTHLAPIAASFHPLLAGAADSARLRGLPIQIVHGRHDWMFPVEVARQAHEALVSAGADVSYREIADLSHSYPREANVALLDWL”, the entry is “failed”. For “VGFAPELYCGLENCYDVLEVNREEFDKQKLAKAYRALARKHHPDRVKNKEEKLLAEERFRVIATAYETLKDDEAKTNYDYYLDHPDQRFYNYYQYYRLRAAPKVDL” the value was “not failed”; for “VGKPKMDVDLLQVDADLKKEIFDAYYNTMKTAVMTEEKLAREVEIDKVKDTVKEVYAEKFSEHEEEAQLLKEVKQIAEDLEKDVVRELITIDKIRPDGRKLDEIRH”, “not failed”. As for “VIGTWDCDTCLVQNKPEAIKCVACETPKPGTCVKRALTLT”, the entry is “not failed”.
